Source: PMC5461112, “Structure analyses reveal a regulated oligomerization mechanism of the PlexinD1/GIPC/myosin VI complex” (eLife, 2017)
Numbering of substitutions follows the chain as printed. In names and notes the source's numbering stands. Several values for one entry are separate records, joined by “and”; a condition that tells them apart may be missing. Equal values may be shown once.

T1: helical cargo-binding domain (HCBD) of mouse myosin VI (residues 1052-1096), GST removed
T1 chain: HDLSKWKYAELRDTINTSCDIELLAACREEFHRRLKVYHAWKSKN

T2: mouse PlexinD1 cytoplasmic region with the JM-segment (residues 1297-1925) (mouse, UniProt Q3UH93 1297-1925)
T2 construct: mouse PlexinD1, cytoplasmic region with the juxtamembrane segment, residues 1297-1925; also called PlexinD1_(cyto)(with JM); PlxD1; not shown: His6, N-terminal, cleaved
T2 sequence (looked up): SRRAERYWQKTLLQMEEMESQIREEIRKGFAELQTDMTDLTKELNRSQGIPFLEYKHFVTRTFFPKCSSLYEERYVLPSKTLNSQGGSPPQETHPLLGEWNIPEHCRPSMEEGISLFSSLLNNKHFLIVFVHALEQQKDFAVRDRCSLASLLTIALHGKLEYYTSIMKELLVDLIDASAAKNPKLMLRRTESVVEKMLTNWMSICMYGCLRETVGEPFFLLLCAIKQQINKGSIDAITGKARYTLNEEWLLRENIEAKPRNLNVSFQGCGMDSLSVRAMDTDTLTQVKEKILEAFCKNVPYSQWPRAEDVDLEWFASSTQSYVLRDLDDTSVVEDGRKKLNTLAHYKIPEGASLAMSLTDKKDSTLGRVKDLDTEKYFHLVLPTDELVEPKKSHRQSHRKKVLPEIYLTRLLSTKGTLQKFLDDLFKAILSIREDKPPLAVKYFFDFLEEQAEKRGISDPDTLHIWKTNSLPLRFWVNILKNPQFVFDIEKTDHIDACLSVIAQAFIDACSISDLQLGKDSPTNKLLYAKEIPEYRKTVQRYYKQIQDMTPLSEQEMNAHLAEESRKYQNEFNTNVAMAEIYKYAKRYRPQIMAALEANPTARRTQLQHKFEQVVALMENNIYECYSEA

B1: mouse GIPC1 GH2 domain (residues 258-333), Q9Z0G0 M276E (protein)
chain: SAFEEKAIEKVDDLLESYEGIRDTELAATMVELGKDKRNPDELAEALDERLGDFAFPDEFVFDVWGAIGDAKVGRY
B2: mouse GIPC1 GH2 domain (residues 258-333), Q9Z0G0 G323Q (protein)
chain: B1 chain with E19M, G66Q
B3: mouse GIPC1 GH2 domain (residues 258-333), Q9Z0G0 F319S (protein)
chain: B1 chain with E19M, F62S
B4: mouse GIPC1 GH2 domain (residues 258-333), Q9Z0G0 M276E; G323Q (protein)
chain: B1 chain with G66Q
B5: mouse GIPC1 GH2 domain (residues 258-333), Q9Z0G0 I278Q; G323Q (protein)
chain: B1 chain with E19M, I21Q, G66Q
B6: mouse GIPC1 linker-GH2 (residues 217-333), Q9Z0G0 Y275A; M276E; I278Q; G323Q (protein)
chain: AFDMISQRSAGGHPGSGPQLGTGRGTLRLRSRGPATVEDLPSAFEEKAIEKVDDLLESAEGQRDTELAATMVELGKDKRNPDELAEALDERLGDFAFPDEFVFDVWQAIGDAKVGRY
B7: mouse GIPC1 GH2 domain (residues 258-333), Q9Z0G0 Y275A; M276E; I278Q (protein)
chain: B1 chain with Y18A, I21Q
B8: mouse GIPC1 GH2 domain (residues 258-333), Q9Z0G0 Y275A; M276E; I278Q; G323Q (protein)
chain: B1 chain with Y18A, I21Q, G66Q
B9: mouse GIPC1 linker-GH2 (residues 217-333), Q9Z0G0 Y275A; M276E; G323Q (protein)
chain: B6 chain with Q62I
B10: mouse GIPC1 linker-GH2 (residues 217-333), Q9Z0G0 Y275A; M276E (protein)
chain: B6 chain with Q62I, Q107G
B11: mouse GIPC1 GH2 domain (residues 258-333), Q9Z0G0 Y275A; G323Q (protein)
chain: B1 chain with Y18A, E19M, G66Q
B12: mouse GIPC1 GH2 domain (residues 258-333), Q9Z0G0 Y275A; M276E (protein)
chain: B1 chain with Y18A
B13: mouse GIPC1 GH2 domain (residues 258-333), Q9Z0G0 Y275A (protein)
chain: B1 chain with Y18A, E19M
B14: mouse GIPC1 GH2 domain (residues 258-333), Q9Z0G0 M276E; F319S (protein)
chain: B1 chain with F62S
B15: mouse GIPC1 GH2 domain (residues 258-333), Q9Z0G0 Y275A; M276E; G323Q (protein)
chain: B1 chain with Y18A, G66Q
B16: mouse GIPC1 linker-GH2 (residues 217-333), Q9Z0G0 Y275A; M276E; I278Q (protein)
chain: B6 chain with Q107G
B17: mouse GIPC1 GH2 domain (residues 258-333), Q9Z0G0 I278Q (protein)
chain: B1 chain with E19M, I21Q
B18: mouse GIPC1 GH2 domain (residues 258-333) (domain or fragment)
chain: B1 chain with E19M
B19: mouse GIPC1 GH1-PDZ-GH2 version 2 (residues 52-327) (domain or fragment, UniProt Q9Z0G0 52-327, looked up)
chain: AALRPRLVFHTQLAHGSPTGRIEGFTNVKELYGKIAEAFRLPAAEVMFCTLNTHKVDMDKLLGGQIGLEDFIFAHVKGQRKEVEVFKSEEALGLTITDNGAGYAFIKRIKEGSVIDHIQLISVGDMIEAINGQSLLGCRHYEVARLLKELPRGRTFTLKLTEPRKAFDMISQRSAGGHPGSGPQLGTGRGTLRLRSRGPATVEDLPSAFEEKAIEKVDDLLESYMGIRDTELAATMVELGKDKRNPDELAEALDERLGDFAFPDEFVFDVWGAIGD
notes: mouse GIPC1, GH1-PDZ-GH2 domains, version 2, residues 52-327; the dimer peak of gel filtration was collected; also called apo-GIPC1; not shown: His6, N-terminal, cleaved
B20: mouse GIPC2 GH1-PDZ-GH2 (residues 40-314) (domain or fragment, UniProt Q9Z2H7 40-314, looked up)
chain: RKLVFHAQLAHGSATGRVEDFSSISELYAKIAGVFEIAPSEILFCTLNTPKIDMGKLLGGQLGLEDFIFAHVKGTKKEVNVYKSEDSLGLTITDNGVGYAFIKRIKDGSTIDSVKTICVGDHIECINGENIVGWRHFEVAKKLKELKKEELFTLQLIEPKKAFEIGPRSKAGKTSTEKIGTSRGTLRLRSKGPATVEELPSEAKAKAIGKVDDLLELYMGIRDIDLATTMFEAGKDKSNPDEFAVALDETLGDFAFPDEFLFDVWGAISDMKQGR
notes: mouse GIPC2, GH1-PDZ-GH2 domains, residues 40-314; not shown: His6, N-terminal, cleaved
B21: mouse GIPC1 GH1-PDZ-GH2 version 1 (residues 52-333) (domain or fragment, UniProt Q9Z0G0 52-333, looked up)
chain: AALRPRLVFHTQLAHGSPTGRIEGFTNVKELYGKIAEAFRLPAAEVMFCTLNTHKVDMDKLLGGQIGLEDFIFAHVKGQRKEVEVFKSEEALGLTITDNGAGYAFIKRIKEGSVIDHIQLISVGDMIEAINGQSLLGCRHYEVARLLKELPRGRTFTLKLTEPRKAFDMISQRSAGGHPGSGPQLGTGRGTLRLRSRGPATVEDLPSAFEEKAIEKVDDLLESYMGIRDTELAATMVELGKDKRNPDELAEALDERLGDFAFPDEFVFDVWGAIGDAKVGRY
notes: mouse GIPC1, GH1-PDZ-GH2 domains, version 1, residues 52-333; the PDZ-GH2 linker and GH2 domain are invisible in the map; not shown: His6, N-terminal, cleaved

Columns and labels:
[1] = molecular target: mouse GIPC3 GH1-PDZ-GH2 (residues 20-307) (mouse); assay: SEC; gel filtration chromatography of the GH1-PDZ-GH2 proteins during purification
[2] = molecular target: mouse GIPC1 GH1-PDZ-GH2 (version not told; pull-down and gel filtration) (mouse) (UniProt Q9Z0G0); assay: as above
[3] = molecular target: T1, helical cargo-binding domain (HCBD) of …; assay: sedimentation velocity analytical ultracentrifugation (AUC); conditions: chain shown with the change, 150 μM, read off a plot
[4] = molecular target: helical cargo-binding domain (HCBD) of mouse myosin VI (residues 1052-1096), GST removed (mouse); assay: AUC; sedimentation velocity of GH2 and HCBD mixed 1:1 at various concentrations (mutants at 150 μM); multi-signal analysis; 10 mM Tris pH 8.0, 150 mM NaCl, 1 mM TCEP; 4°C, 50,000 rpm
[5] = molecular target: the molecule itself; assay: crystal structure; apo-GIPC1 (residues 52-327), 5 mg/ml; 0.2 M Li2SO4, 0.1 M HEPES pH 7.5, 25% (w/v) PEG3350; 20°C
[6] = molecular target: the molecule itself; assay: SEC; gel filtration chromatography of the GH1-PDZ-GH2 proteins during purification
[7] = molecular target: T2, mouse PlexinD1 cytoplasmic region with …; assay: pull-down; three proteins mixed: GST-HCBD, a GIPC and PlexinD1cyto (with JM), each 1 μM; glutathione beads; 10 mM Tris pH 8.0, 150 mM NaCl, 1 mM DTT; room temperature; Coomassie-stained SDS-PAGE; conditions: both partners purified
[8] = molecular target: the molecule itself; assay: crystal structure; PlexinD1cyto and GIPC1 (residues 52-333) mixed equimolar, 5 mg/ml; 0.1 M Bis-Tris pH 5.5, 2 M (NH4)2SO4; 20°C
[9] = 500 mM salt in the buffer, parent: est. 4.3

| Molecule | other: s20,ww-value of the complex ([3]; parent: est. 3.8) [S] | also measured |
| --- | --- | --- |
| mouse GIPC3 GH1-PDZ-GH2 (residues 20-307) (domain or fragment) | – | stoichiometry N [1]: 2 |
| mouse GIPC1 GH1-PDZ-GH2 (version not told; pull-down and gel filtration) (from UniProt Q9Z0G0 52-333) (domain or fragment) | – | stoichiometry N [2]: 2 |
| B1 | 3.3 | – |
| B2 | 1.8 | – |
| B3 | 2.4 | – |
| B4 | 1.5 | – |
| B5 | 1.8 | – |
| B6 | – | other: s20,ww-value of the complex [3, 9]: 1.4 S |
| B7 | 1.3 | – |
| B8 | 1.3 | – |
| B9 | – | other: s20,ww-value of the complex [3, 9]: 1.4 S |
| B10 | – | other: s20,ww-value of the complex [3, 9]: 1.4 S |
| B11 | 1.6 | – |
| B12 | 1.3 | – |
| B13 | 3 | – |
| B14 | 1.6 | – |
| B15 | 1.3 | – |
| B16 | – | other: s20,ww-value of the complex [3, 9]: 1.4 S |
| B17 | 2.1 | – |
| B18 | – | stoichiometry N [4]: 1 and 1.1 |
| B19 | – | binding result [5]: binds |
| B20 | – | stoichiometry N [6]: 2; binding result [7]: binds |
| B21 | – | binding result [8]: binds |
